Measured values published in US7524498.
Values joined by “and” are separate entries in the source; they are usually repeats but may differ in a detail not shown here. Equal entries are not always repeated. Where two headings read alike, the source gives them in different places.

Tests used:
[1] = target: BAT-1 antigen (human); assay: flow cytometry on PBL of a prostate cancer patient, B cells
[2] = target: BAT-1 antigen (human); assay: flow cytometry on non-adherent PBL of a normal donor
[3] = target: BAT-1 antigen (human); assay: flow cytometry on human PBL of a selected normal donor, hBAT+ CD8+ cells
[4] = target: BAT-1 antigen (human); assay: flow cytometry on human PBL of a selected normal donor, hBAT+ CD4+ cells
[5] = target: BAT-1 antigen (human); assay: flow cytometry on human PBL of normal donors, 4° C. 1 hr, gated lymphocytes
[6] = target: BAT-1 antigen (human)
[7] = target: BAT-1 antigen (human); assay: flow cytometry on PBL of a prostate cancer patient, CD4+ cells
[8] = target: BAT-1 antigen (human); assay: flow cytometry on non-adherent PBL of a normal donor, within CD20+ B cells
[9] = target: BAT-1 antigen (human); assay: flow cytometry on non-adherent PBL of a normal donor, within CD19+ B cells
[10] = target: BAT-1 antigen (human); assay: flow cytometry on PBL of a prostate cancer patient, CD8+ cells
[11] = target: BAT-1 antigen (human); assay: flow cytometry on non-activated human CD4+ T cells
[12] = target: BAT-1 antigen (human); assay: flow cytometry on human PBL of a selected normal donor
[13] = target: BAT-1 antigen (human); assay: flow cytometry on human PBL of a selected normal donor, within CD4+ cells
[14] = target: BAT-1 antigen (human); remark: listed apart in the source
[15] = target: BAT-1 antigen (human); remark: listed apart in the source
[16] = target: BAT-1 antigen (human); assay: flow cytometry on human PBL of a selected normal donor, within CD8+ cells

Question: With “humanized BATRHC/BATRκD γ1 mAb (antibody)” as the molecule, how does the % of B cells bound [1] read?
Answer: 68%

Question: And the % of lymphocytes positive [2]?
Answer: 25% and 29%

Question: And the % of PBL positive (CD8+ cells) [3]?
Answer: 15%

Question: What about the % of PBL positive (CD4+ cells) [4] of the same molecule?
Answer: 25%

Question: What about the % of cells binding [5] of the same molecule?
Answer: 20%

Question: And the IC50 [6]?
Answer: 10 µg/mL

Question: What about the % of CD4+ cells bound [7] of the same molecule?
Answer: 39%

Question: What about the % of CD20+ cells positive [8] of the same molecule?
Answer: 70%

Question: And the % of CD19+ cells positive [9]?
Answer: 75%

Question: What about the % of CD8+ cells bound [10] of the same molecule?
Answer: 60%

Question: What about the % of CD4+ cells binding [11] of the same molecule?
Answer: 17% and 20%

B1: humanized BATRHC/BATRκD γ1 mAb (antibody, V domains shown)
VH: QVQLVQSGSELKKPGASVKISCKASGYTFTNYGMNWVRQAPGQGLQWMGWINTDSGESTYAEEFKGRFVFSLDTSVNTAYLQITSLTAEDTGMYFCVRVGYDALDYWGQGTLVTVSS
VL: EIVLTQSPSSLSASVGDRVTITCSARSSVSYMHWFQQKPGKAPKLWIYRTSNLASGVPSRFSGSGSGTSYCLTINSLQPEDFATYYCQQRSSFPLTFGGGTKLEIK
Question: What does the source list for B1?
Answer: % of cells positive [12]: 50%; % of CD4+ cells binding [13]: 58%; Signal Strength [14]: 0; % of CD4+ cells binding [15]: 52% and 77%; % of CD8+ cells binding [16]: 71%
